Data as given in patent publication CN115536747A (YIKESITE BEIJING PHARMACEUTICAL TECH DEVELOPMENT CO LTD, dated 2022).
Residue numbers refer to the chain shown, from its start.

T1: 人TROP2 on cells (表达TROP2的CHO细胞系; MCF, MDA-MB-231, MDA-MB-468, HCC1395 breast cancer cells) (human, UniProt P09758 27-323)
T1 construct: whole, on cells; also called 细胞膜表面的TROP2抗原; 人细胞表面抗原TROP2
T1 sequence (looked up): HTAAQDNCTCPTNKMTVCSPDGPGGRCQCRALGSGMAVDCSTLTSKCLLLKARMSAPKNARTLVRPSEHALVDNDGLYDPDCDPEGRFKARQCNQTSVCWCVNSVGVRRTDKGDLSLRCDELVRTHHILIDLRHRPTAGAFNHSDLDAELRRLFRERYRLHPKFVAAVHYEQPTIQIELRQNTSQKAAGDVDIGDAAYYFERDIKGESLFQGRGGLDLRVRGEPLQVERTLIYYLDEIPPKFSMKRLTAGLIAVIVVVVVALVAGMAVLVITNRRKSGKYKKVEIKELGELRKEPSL

T2: TROP2抗原 (TROP2-Fc融合蛋白, Acrobiosystems, 目录号TR2-H5253) (human, UniProt P09758 27-274)
T2 construct: not shown: human antibody Fc
T2 sequence (looked up): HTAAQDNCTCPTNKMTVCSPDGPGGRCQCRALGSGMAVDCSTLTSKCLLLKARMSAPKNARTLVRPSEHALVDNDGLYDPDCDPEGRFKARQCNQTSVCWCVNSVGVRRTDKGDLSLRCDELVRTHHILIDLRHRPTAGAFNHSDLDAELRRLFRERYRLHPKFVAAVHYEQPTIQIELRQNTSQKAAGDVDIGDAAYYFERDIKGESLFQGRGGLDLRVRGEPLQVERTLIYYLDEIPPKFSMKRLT

T3: Rhesus TROP-2 (猴TROP2蛋白, SPR antigen) (Rhesus (the 2nd table); 食蟹猴 (text paragraph 139), UniProt A0A5F8AGB8 27-274)
T3 construct: also called 食蟹猴TROP2
T3 sequence: T2 sequence (looked up) with M36V, S67N, I204V

T4: Human TROP-2 (人TROP2蛋白, SPR antigen) (human, UniProt P09758 27-274, limits assumed)
T4 construct: The construct used in SPR is not described
T4 sequence (looked up): T2 sequence (looked up)

B1: 双特异性抗体F7AK3 (TROP2×CD3, cFIST形式) (bispecific antibody, human IgG4 S228P, kappa)
heavy: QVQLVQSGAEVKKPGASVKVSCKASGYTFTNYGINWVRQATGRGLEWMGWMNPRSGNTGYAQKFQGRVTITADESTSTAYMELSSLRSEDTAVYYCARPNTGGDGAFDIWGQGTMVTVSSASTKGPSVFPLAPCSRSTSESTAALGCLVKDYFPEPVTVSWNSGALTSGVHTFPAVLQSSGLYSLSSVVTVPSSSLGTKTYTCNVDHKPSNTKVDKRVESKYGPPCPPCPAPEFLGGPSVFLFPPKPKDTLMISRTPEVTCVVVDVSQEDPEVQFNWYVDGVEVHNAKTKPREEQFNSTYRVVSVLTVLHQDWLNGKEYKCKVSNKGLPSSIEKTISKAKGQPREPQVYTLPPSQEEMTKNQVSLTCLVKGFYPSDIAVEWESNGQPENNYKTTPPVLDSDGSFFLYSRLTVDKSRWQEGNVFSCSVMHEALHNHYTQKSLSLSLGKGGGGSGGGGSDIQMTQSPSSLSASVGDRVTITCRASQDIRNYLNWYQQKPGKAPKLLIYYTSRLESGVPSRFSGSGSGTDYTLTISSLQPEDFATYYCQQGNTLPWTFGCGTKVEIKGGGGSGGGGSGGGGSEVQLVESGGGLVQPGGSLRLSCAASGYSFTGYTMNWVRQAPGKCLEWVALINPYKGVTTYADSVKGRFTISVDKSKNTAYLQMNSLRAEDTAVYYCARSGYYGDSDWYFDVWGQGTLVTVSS
light: DIQLTQSPSSVSASVGDRVTITCRASQGISSWLAWYRQKPGKAPKLLIYRARSLQSGVPSRFSGSGSGTDFTLTISSLQPEDFATYYCQQANSFPVTFGQGTRLEIKRTVAAPSVFIFPPSDEQLKSGTASVVCLLNNFYPREAKVQWKVDNALQSGNSQESVTEQDSKDSTYSLSSTLTLSKADYEKHKVYACEVTHQGLSSPVTKSFNRGEC
notes: also called F7AK3双抗
B2: 1F7单链抗体 (scFv shown on M13 phage) (scFv)
scFv: QVQLVQSGAEVKKPGASVKVSCKASGYTFTSYGINWVRQATGRGLEWMGWMNPNSGNTGYAQKFQGRVTITADESTSTAYMELSSLRSEDTAVYYCARPNTGGDGAFDIWGQGTMVTVSSGGSSRSSSSGGGGSGGGGDIQLTQSPSSVSASVGDRVTITCRASQGISSWLAWYRQKPGKAPKLLIYAASSLQSGVPSRFSGSGSGTDFTLTISSLQPEDFATYYCQQANSFPITFGQGTRLEIK
notes: The phage coat protein fusion is not described; also called hit
B3: 1F7亲本抗体 (IgG形式) (antibody, V domains shown)
VH: QVQLVQSGAEVKKPGASVKVSCKASGYTFTSYGINWVRQATGRGLEWMGWMNPNSGNTGYAQKFQGRVTITADESTSTAYMELSSLRSEDTAVYYCARPNTGGDGAFDIWGQGTMVTVSS
VL: DIQLTQSPSSVSASVGDRVTITCRASQGISSWLAWYRQKPGKAPKLLIYAASSLQSGVPSRFSGSGSGTDFTLTISSLQPEDFATYYCQQANSFPITFGQGTRLEIKR
B4: 突变体F7A (IgG形式) (antibody, V domains shown)
VH: B3 VH with S31N, N54R
VL: B3 VL with A50R, S52R, I96V

Legend:
[1] = molecular target: T1, 人TROP2 on cells (表达TROP2的CHO细胞系; MCF, …); experiment: flow cytometry on MDA-MB-231 cells, PE anti-human IgG Fc
[2] = molecular target: T1, 人TROP2 on cells (表达TROP2的CHO细胞系; MCF, …); experiment: flow cytometry on MDA-MB-468 cells, PE anti-human IgG Fc
[3] = molecular target: T1, 人TROP2 on cells (表达TROP2的CHO细胞系; MCF, …); experiment: flow cytometry on HCC1395 cells, PE anti-human IgG Fc
[4] = molecular target: T1, 人TROP2 on cells (表达TROP2的CHO细胞系; MCF, …); experiment: flow cytometry on MCF cells, PE anti-human IgG Fc
[5] = molecular target: T5, 人T细胞的CD3 (CD3+ T细胞) (human, UniProt P07766 23-207; P04234 22-171; P09693 23-182; P20963 22-164); experiment: flow cytometry on CD3+ T cells, PE anti-human IgG Fc
T5 construct: whole, on cells; also called T细胞表面抗原CD3
T5 sequence (P07766 23-207, chain 1 of 4): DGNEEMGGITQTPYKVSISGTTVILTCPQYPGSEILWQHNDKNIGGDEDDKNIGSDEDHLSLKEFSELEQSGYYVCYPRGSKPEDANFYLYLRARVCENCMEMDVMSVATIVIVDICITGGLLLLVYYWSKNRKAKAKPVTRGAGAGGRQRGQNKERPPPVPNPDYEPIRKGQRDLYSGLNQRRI
T5 sequence (P04234 22-171, chain 2 of 4): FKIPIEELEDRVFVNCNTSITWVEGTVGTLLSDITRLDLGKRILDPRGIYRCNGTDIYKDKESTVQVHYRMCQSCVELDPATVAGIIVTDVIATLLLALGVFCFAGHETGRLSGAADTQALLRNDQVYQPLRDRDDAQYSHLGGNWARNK
T5 sequence (P09693 23-182, chain 3 of 4): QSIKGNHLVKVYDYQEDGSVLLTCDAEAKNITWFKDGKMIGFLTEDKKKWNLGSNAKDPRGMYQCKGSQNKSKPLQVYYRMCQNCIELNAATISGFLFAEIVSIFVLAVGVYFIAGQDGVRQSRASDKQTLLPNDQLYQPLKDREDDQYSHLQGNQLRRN
T5 sequence (P20963 22-164, chain 4 of 4): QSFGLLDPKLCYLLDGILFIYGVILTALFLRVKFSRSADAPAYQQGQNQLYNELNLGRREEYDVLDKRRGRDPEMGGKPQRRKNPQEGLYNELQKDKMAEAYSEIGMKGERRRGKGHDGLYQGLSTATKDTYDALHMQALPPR

[6] = molecular target: T2, TROP2抗原 (TROP2-Fc融合蛋白, Acrobiosystems, …); experiment: monoclonal phage ELISA, TROP2 antigen coated at 1 μg/ml, positive = more than 3x negative control
[7] = molecular target: T3, Rhesus TROP-2 (猴TROP2蛋白, SPR antigen); experiment: SPR, IgG
[8] = molecular target: T4, Human TROP-2 (人TROP2蛋白, SPR antigen); experiment: SPR, IgG
[9] = molecular target: T4, Human TROP-2 (人TROP2蛋白, SPR antigen); experiment: ELISA (内在亲和力)
[10] = molecular target: T3, Rhesus TROP-2 (猴TROP2蛋白, SPR antigen); experiment: SPR, IgG; reference 1F7
[11] = molecular target: T4, Human TROP-2 (人TROP2蛋白, SPR antigen); experiment: SPR, IgG; reference 1F7

Binder	EC50 [1] [µg/mL]	EC50 [2] [µg/mL]	EC50 [3] [µg/mL]	EC50 [4] [µg/mL]	EC50 [5] [µg/mL]	binding result [6]	Kd [7] [nM]	koff [7] [s⁻¹]	kon [7] [M⁻¹ s⁻¹]	Kd [8] [nM]	koff [8] [s⁻¹]	kon [8] [M⁻¹ s⁻¹]	Kd [9] [nM]	fold improvement of affinity against 1F7 [10]	fold improvement of binding against 1F7 [11]
B1	0.0891	0.0668	0.0532	0.205	0.568										
B2						binds									
B3							40.7	0.000942	23100	7.57	0.000892	118000	~7.5		
B4							12.8	0.00165	128000	4.35	0.000834	192000		3.18 倍	1.74 倍
